# Laboratory results reported in patent publication US20160215040A1 (Regeneron, published 2016).
# B1: H2aM17358N (antibody, V domains shown)
# VH: EVQLVESGGGLVQPGGSLRLSCAASGFTFSTYEMNWVRQAPGKGLEWVSYSSSSGRTIYYADSVKGRFTISRDNAKNSLFLQMNSLRAEDTAVYYCARPSSIETLLRNQYHYGVDVWGQGTTVTVSS
# VL: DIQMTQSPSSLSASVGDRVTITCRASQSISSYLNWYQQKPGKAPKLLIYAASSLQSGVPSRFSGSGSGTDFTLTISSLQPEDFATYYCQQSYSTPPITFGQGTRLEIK
# notes: also called HCAF12C05-14
# B2: H2aM17360N (antibody, V domains shown)
# VH: EVQLVESGGGLVQPGGSLRLSCAASGFTFSSYEMNWVRQAPGKGLEWVSYISSSGSTKYYADSVKGRFTISRDNAKNSLYLQMNSLRAEDTAVYYCARPSSIPALLRNQYHYGMDVWGQGTTVTVSS
# VL: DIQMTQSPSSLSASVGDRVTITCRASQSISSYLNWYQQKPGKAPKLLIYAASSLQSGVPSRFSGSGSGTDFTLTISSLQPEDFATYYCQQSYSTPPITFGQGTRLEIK
# notes: also called HCAF12G09-07
# B3: H1H17139P (antibody, V domains shown)
# VH: EVQLVESGGGLVQPGGSLRLSCAASGFTFSSYDMHWVRQATGKGLEWVSAIGTAGDTYYPGSVKGRFTISRENAKNSLYLQMNSLRAGDTAVYYCARTWFGELYFDYWGQGTLVTVSS
# VL: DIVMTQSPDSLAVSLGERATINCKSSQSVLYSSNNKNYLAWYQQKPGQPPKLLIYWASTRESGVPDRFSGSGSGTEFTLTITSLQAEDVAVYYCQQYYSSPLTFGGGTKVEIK
# B4: H1H17203P (antibody, V domains shown)
# VH: QVQLVESGGGVVQPGRSLRLSCAASGFTFNNYGMHWVRQAPGMGLEWVAVIWHDGSDKYYADSVKGRFTISRDNSKNTLYLQMNSLRAEDTAVYYCARNWNLFDYWGQGTLVTVSS
# VL: DIQMTQSPSSLSASVGDRITITCRASQSISTYLHWYQQKPGKAPKLLIYAASTLQSGVPSRFSGSGSGTDFTLTISSLQPEDFATYYCQQSFSTPPINFGQGTKLEIK
# B5: H1H17199P (antibody, V domains shown)
# VH: EVQLVESGGGLVQPGGSLRLSCAASGFTFSDHYMVWVRQAPGKGLEWVGRTRNKANSYSTEYAASVKGRFTISRDDSKKSLYLQMNSLKTEDTAVYYCARGGETLWFGESNYGMDVWGQGTTVTVSS
# VL: EIVLTQSPDTLSLSPGERATLSCRASQSVSSTYLAWYQQKPGQAPSLLIYGASSRATGIPDRFSGSGSGTDFTLTISRLEPEDFAVYYCQQYGRSPLTFGGGTKVEIK
# B6: H1M17354N (antibody, V domains shown)
# VH: QVQLVQSGAEVKKPGASVKVSCKASGYTFTSYYMHWVRQAPGQGLEWLGIINPSGGSTSYAQKFQGRVTMTRDTSTSTVYMELSSLRSEDTAVYYCARETGEAGEVFNYWGQGTQVTVSS
# VL: DIQMTQSPSSLSASVGDRVTITCRASQIISRYLNWYQHKPGKAPKVLIYAASTLQSGVPSRFSGSGSGTDFTLTISSLQPEDFATYYCQQSYSTPPITFGQGTRLEIK
# notes: also called HCAF05C08-22
# B7: H1H17193P (antibody, V domains shown)
# VH: QVQLVESGGGVVQPGRSLRLSCAASGFTFSSYGIHWVRQAPGKWLEWVAFIWFDGSNKYYADSVKGRFTISRDDSKNTLYLQMNSLRAEDTAVYYCARDGEIFGVLISSDAFDIWGQGTMVTVSS
# VL: DIQMTQSPSSLSASVGDRVTITCRASRGIRNDLGWFQQKPGKAPKRLIYVASNLQSGVPSRFSGSGSGTEFTLTISSLQPEDFATYYCLQHNSYPITFGQGTRLEIK
# B8: H1H17196P (antibody, V domains shown)
# VH: EVQLVESGGGLVQPGGSLRLSCAASGFTFRSYDMHWVRQGSGKGLEWVSAIGTAGDTYYLGSVKGRFTISRENAKNSLYLQMNSLRAGDTAVYYCARAWFGDVFLDYWGQGTLVTVSS
# VL: EIVMTQSPATLSVSPGERATLSCRASQSVSSNLAWYQQKPGQAPRLLIYGASTRATGIPARFSGSGSGTEFTLTISSLQSEDFAGYYCQQYNNRLTFGGGTKVEIK
# How the values were obtained:
# [1] = molecular target: T1, Ebola virus GP with a C-terminal polyhistidine tag (Sino Biologicals, Catalog #40442-V08B1) (Ebola virus, UniProt P87666 33-650); test: SPR 25C, mAb captured
# T1 construct: also called EbolaGP.his; Ebola virus GP.his
# [2] = molecular target: T1, Ebola virus GP with a C-terminal …; test: SPR 37C, mAb captured
# [3] = molecular target: Ebola virus GP, Zaire 2014 strain, on VLPs (pseudoparticles) (Ebola virus, Zaire.2014 strain); test: cell-based or functional assay
# [4] = molecular target: T1, Ebola virus GP with a C-terminal …; test: SPR 37C, mAb captured, pH chase
# [5] = molecular target: T2, Ebola virus GP, Sudan strain, on VLPs (Ebola virus, Sudan strain, UniProt Q7T9D9 33-676); test: MSD, VLPs coated
# T2 construct: also called Sudan NC_006432
# T2 sequence: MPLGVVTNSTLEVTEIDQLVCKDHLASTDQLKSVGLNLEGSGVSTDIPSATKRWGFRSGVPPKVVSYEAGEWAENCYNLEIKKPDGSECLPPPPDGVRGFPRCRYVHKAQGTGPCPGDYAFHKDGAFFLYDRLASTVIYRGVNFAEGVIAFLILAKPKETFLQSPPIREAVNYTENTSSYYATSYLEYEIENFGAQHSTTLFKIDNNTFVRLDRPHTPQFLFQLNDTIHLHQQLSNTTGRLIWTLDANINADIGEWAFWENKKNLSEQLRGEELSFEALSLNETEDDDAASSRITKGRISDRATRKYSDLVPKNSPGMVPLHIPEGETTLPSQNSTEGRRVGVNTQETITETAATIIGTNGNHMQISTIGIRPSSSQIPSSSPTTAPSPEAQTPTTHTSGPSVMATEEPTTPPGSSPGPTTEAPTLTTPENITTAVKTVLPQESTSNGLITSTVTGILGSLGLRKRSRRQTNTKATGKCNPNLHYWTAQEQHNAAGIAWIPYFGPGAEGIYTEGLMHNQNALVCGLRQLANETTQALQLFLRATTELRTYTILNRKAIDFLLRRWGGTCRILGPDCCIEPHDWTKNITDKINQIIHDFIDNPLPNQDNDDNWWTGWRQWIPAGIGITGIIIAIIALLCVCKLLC
# [6] = molecular target: T3, Ebola virus GP, Cote d'Ivoire strain, on VLPs (Ebola virus, Cote d'Ivoire strain, UniProt Q66810 33-676); test: MSD, VLPs coated
# T3 construct: also called Cote d'Ivoire FJ217162; Ivory Coast
# T3 sequence: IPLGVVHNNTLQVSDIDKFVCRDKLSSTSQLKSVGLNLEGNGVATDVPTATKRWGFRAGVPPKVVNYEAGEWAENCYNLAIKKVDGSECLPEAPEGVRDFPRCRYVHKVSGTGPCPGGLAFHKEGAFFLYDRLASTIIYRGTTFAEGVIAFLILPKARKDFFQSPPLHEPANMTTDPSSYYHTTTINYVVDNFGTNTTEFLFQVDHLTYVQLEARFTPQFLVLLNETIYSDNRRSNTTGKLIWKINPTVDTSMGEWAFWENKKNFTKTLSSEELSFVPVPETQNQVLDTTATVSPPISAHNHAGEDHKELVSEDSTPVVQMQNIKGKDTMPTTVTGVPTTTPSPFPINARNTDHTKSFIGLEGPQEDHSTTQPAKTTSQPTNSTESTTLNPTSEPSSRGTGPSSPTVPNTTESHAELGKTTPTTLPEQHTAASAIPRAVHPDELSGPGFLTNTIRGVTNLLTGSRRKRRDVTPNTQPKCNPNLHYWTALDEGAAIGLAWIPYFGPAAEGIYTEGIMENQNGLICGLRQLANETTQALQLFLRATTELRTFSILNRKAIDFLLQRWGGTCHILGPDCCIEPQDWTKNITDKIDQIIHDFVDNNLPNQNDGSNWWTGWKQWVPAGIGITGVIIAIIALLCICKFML
# [7] = molecular target: T4, hCNTFR.mmh (ciliary neurotrophic factor receptor.mmh) (human (printed as hCNTFR), UniProt P26992 23-342); test: BLI, mAb captured, 25C
# T4 construct: also called negative control protein; not shown: mmh (myc-myc-hexahistidine) tag
# T4 sequence: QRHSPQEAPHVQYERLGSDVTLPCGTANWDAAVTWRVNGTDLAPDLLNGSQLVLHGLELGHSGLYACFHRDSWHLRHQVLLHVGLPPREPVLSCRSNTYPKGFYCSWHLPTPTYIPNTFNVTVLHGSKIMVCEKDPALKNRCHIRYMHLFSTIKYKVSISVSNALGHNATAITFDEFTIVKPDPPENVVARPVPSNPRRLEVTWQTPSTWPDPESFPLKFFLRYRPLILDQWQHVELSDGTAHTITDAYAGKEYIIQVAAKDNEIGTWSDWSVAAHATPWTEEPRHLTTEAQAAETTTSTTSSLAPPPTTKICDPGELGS
binder,measurement,setting,value
B1,Kd,[1],623 nM
same,koff,[1],0.000201 s⁻¹
same,kon,[1],322 M⁻¹ s⁻¹
same,t½,[1],57.5 min
same,Kd,[2],52.8 nM
same,koff,[2],0.000567 s⁻¹
same,kon,[2],10700 M⁻¹ s⁻¹
same,t½,[2],20.4 min
same,Zaire 2014 VLP neutralization IC50,[3],4.68 nM
same,t½ ratio pH 7.4/pH 5.0,[4],0.4
same,t½ ratio pH 7.4/pH 6.0,[4],0.7
B2,Kd,[1],0.463 nM
same,koff,[1],1.06e-05 s⁻¹
same,kon,[1],23000 M⁻¹ s⁻¹
same,t½,[1],1090 min
same,Kd,[2],13.9 nM
same,koff,[2],0.000337 s⁻¹
same,kon,[2],24300 M⁻¹ s⁻¹
same,t½,[2],34.3 min
same,Zaire 2014 VLP neutralization IC50,[3],3.75 nM
same,t½ ratio pH 7.4/pH 5.0,[4],0.5
same,t½ ratio pH 7.4/pH 6.0,[4],0.2
B3,binding result,[5],no binding
same,binding result,[6],no binding
same,Kd,[1],7.13 nM
same,koff,[1],0.000163 s⁻¹
same,kon,[1],22900 M⁻¹ s⁻¹
same,t½,[1],70.8 min
same,Kd,[2],20.6 nM
same,koff,[2],0.000512 s⁻¹
same,kon,[2],24800 M⁻¹ s⁻¹
same,t½,[2],22.5 min
same,binding result,[7],no binding (tested: below 0.10 nm at 300 nM)
same,t½ ratio pH 7.4/pH 5.0,[4],0.2
same,t½ ratio pH 7.4/pH 6.0,[4],0.2
B4,binding result,[5],no binding
same,binding result,[6],no binding
same,Kd,[1],6.04 nM
same,koff,[1],0.000168 s⁻¹
same,kon,[1],27800 M⁻¹ s⁻¹
same,t½,[1],68.7 min
same,Kd,[2],30.9 nM
same,koff,[2],0.00119 s⁻¹
same,kon,[2],38500 M⁻¹ s⁻¹
same,t½,[2],9.7 min
same,binding result,[7],no binding (tested: below 0.10 nm at 300 nM)
same,t½ ratio pH 7.4/pH 5.0,[4],0.1
same,t½ ratio pH 7.4/pH 6.0,[4],0.2
B5,binding result,[5],no binding
same,binding result,[6],no binding
same,Kd,[1],18.9 nM
same,koff,[1],0.000236 s⁻¹
same,kon,[1],12500 M⁻¹ s⁻¹
same,t½,[1],49 min
same,Kd,[2],42.2 nM
same,koff,[2],0.00128 s⁻¹
same,kon,[2],30400 M⁻¹ s⁻¹
same,t½,[2],9 min
same,binding result,[7],no binding (tested: below 0.10 nm at 300 nM)
same,t½ ratio pH 7.4/pH 5.0,[4],0.1
same,t½ ratio pH 7.4/pH 6.0,[4],0.4
B6,binding result,[5],no binding
same,binding result,[6],no binding
same,Kd,[1],63.9 nM
same,koff,[1],0.00316 s⁻¹
same,kon,[1],49400 M⁻¹ s⁻¹
same,t½,[1],3.7 min
same,Kd,[2],113 nM
same,koff,[2],0.00573 s⁻¹
same,kon,[2],50800 M⁻¹ s⁻¹
same,t½,[2],2 min
same,binding result,[7],no binding (tested: below 0.10 nm at 300 nM)
same,t½ ratio pH 7.4/pH 5.0,[4],1.3
same,t½ ratio pH 7.4/pH 6.0,[4],1.3
B7,binding result,[5],no binding
same,binding result,[6],no binding
same,Kd,[1],23.6 nM
same,koff,[1],0.000108 s⁻¹
same,kon,[1],4580 M⁻¹ s⁻¹
same,t½,[1],107 min
same,Kd,[2],31.8 nM
same,koff,[2],0.000503 s⁻¹
same,kon,[2],15800 M⁻¹ s⁻¹
same,t½,[2],22.9 min
same,binding result,[7],no binding (tested: below 0.10 nm at 300 nM)
same,t½ ratio pH 7.4/pH 5.0,[4],0.8
same,t½ ratio pH 7.4/pH 6.0,[4],1.1
B8,binding result,[5],no binding
same,binding result,[6],no binding
same,Kd,[1],≤ 0.391 nM
same,koff,[1],≤ 1e-05 s⁻¹
same,kon,[1],25600 M⁻¹ s⁻¹
same,t½,[1],≥ 1160 min
same,Kd,[2],0.317 nM
same,koff,[2],≤ 1e-05 s⁻¹
same,kon,[2],31600 M⁻¹ s⁻¹
same,t½,[2],≥ 1160 min
same,binding result,[7],no binding (tested: below 0.10 nm at 300 nM)
same,t½ ratio pH 7.4/pH 5.0,[4],1
same,t½ ratio pH 7.4/pH 6.0,[4],1
